# PMC5906006 (PLoS ONE, 2018)
# Bridge positions count the residues as written; N and C are the ends. Square brackets hold non-standard residues; d marks the D form. Peptide text beside a SMILES is read from it. * marks the point of attachment. X1 = O=C(O)CN1CCN(CC(=O)O)CCN([C@H](CCC(=O)*)C(=O)O)CC1; dPhe(4-NHCONH2) = NC(=O)Nc1ccc(C[C@@H](N)C(=O)O)cc1; Dihydroorotyl(S) = O=C1C[C@@H](C(=O)*)NC(=O)N1; Phe(4-Cl) = N[C@@H](Cc1ccc(Cl)cc1)C(=O)O; Phe(4-NH2) = Nc1ccc(C[C@H](N)C(=O)O)cc1
# Columns and labels:
# human sst2 receptors = biological target: T1, human sst2 receptors (Homo sapiens, UniProt P30874); experiment: Saturation binding on HEK-hsst2 cells; settings: 2 hours at +4 °C
# T1 construct: expressed in transfected cells; host or cells: HEK-293 (HEK-hsst2), a gift from Prof; Schulz, University of Jena
# Procedure: The saturation binding experiments were performed with radioligand (^64/natCu-NODAGA-JR11 and ^64/natCu-DOTA-TATE) concentrations ranging from 0.5–75 nM and 0.5–90 nM, respectively, for 2 hours at +4 °C as described previously [24]. The Kd and Bmax values were calculated using GraphPad.
# [1] = Biodistribution in HEK-hsst2 tumor-bearing mice; settings: female, Balb/c nude, mouse, in vivo, iv, total radioactivity
# T1 sequence (P30874 whole entry): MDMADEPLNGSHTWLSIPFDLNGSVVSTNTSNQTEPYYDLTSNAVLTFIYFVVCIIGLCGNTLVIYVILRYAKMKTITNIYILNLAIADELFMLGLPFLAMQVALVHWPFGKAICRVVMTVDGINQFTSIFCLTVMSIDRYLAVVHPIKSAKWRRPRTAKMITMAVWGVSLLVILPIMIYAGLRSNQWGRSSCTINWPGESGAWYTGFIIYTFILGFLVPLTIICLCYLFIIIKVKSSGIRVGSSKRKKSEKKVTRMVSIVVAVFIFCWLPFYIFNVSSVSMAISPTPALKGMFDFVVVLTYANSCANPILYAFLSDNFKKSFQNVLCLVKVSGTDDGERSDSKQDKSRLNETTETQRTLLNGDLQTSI
structure (smiles),measurement,setting,value
"C[C@@H](O)[C@@H]1NC(=O)[C@H](CCCCN)NC(=O)[C@@H](Cc2ccc(NC(N)=O)cc2)NC(=O)[C@H](Cc2ccc(NC(=O)[C@@H]3CC(=O)NC(=O)N3)cc2)NC(=O)[C@H](NC(=O)[C@H](Cc2ccc(Cl)cc2)NC(=O)CC[C@H](C(=O)O)N2CCN(CC(=O)O)CCN(CC(=O)O)CC2)CSSC[C@@H](C(=O)N[C@H](Cc2ccc(O)cc2)C(N)=O)NC1=O [^64Cu-NODAGA-JR11, metal not drawn] (X1-[Phe(4-Cl)][dC][Phe(4-NH2)](Dihydroorotyl(S))[dPhe(4-NHCONH2)]KTC[dY]-NH2; disulfide 2-7)",Kd,human sst2 receptors,5.7 ± 0.95 nM
same,tissue uptake at 1 h,"[1]; 10 pmol, Adrenal uptake",4.8 ± 0.8 %ID/g
same,tissue uptake at 4 h,"[1]; 10 pmol, Adrenal uptake",3.5 ± 0.9 %ID/g
same,tissue uptake at 24 h,"[1]; 10 pmol, Adrenal uptake",1.5 ± 0.6 %ID/g
same,tissue uptake at 1 h,"[1]; 10 pmol, Blood uptake",0.6 ± 0.2 %ID/g
same,tissue uptake at 4 h,"[1]; 10 pmol, Blood uptake",0.1 %ID/g
same,tissue uptake at 24 h,"[1]; 10 pmol, Blood uptake",0.1 %ID/g
same,tissue uptake at 1 h,"[1]; 10 pmol, Bone uptake",0.7 ± 0.2 %ID/g
same,tissue uptake at 4 h,"[1]; 10 pmol, Bone uptake",0.8 ± 0.2 %ID/g
same,tissue uptake at 24 h,"[1]; 10 pmol, Bone uptake",0.4 ± 0.2 %ID/g
same,tissue uptake at 1 h,"[1]; 10 pmol, Heart uptake",0.5 ± 0.1 %ID/g
same,tissue uptake at 4 h,"[1]; 10 pmol, Heart uptake",0.3 ± 0.1 %ID/g
same,tissue uptake at 24 h,"[1]; 10 pmol, Heart uptake",0.2 ± 0.1 %ID/g
same,tissue uptake at 1 h,"[1]; 10 pmol, Intestine uptake",0.9 ± 0.4 %ID/g
same,tissue uptake at 4 h,"[1]; 10 pmol, Intestine uptake",0.7 ± 0.1 %ID/g
same,tissue uptake at 24 h,"[1]; 10 pmol, Intestine uptake",0.4 %ID/g
same,tissue uptake at 1 h,"[1]; 10 pmol, Kidney uptake",10.3 ± 0.7 %ID/g
same,tissue uptake at 4 h,"[1]; 10 pmol, Kidney uptake",6.9 ± 0.9 %ID/g
same,tissue uptake at 24 h,"[1]; 10 pmol, Kidney uptake",2.2 ± 0.6 %ID/g
same,tissue uptake at 1 h,"[1]; 10 pmol, Liver uptake",1.7 ± 0.2 %ID/g
same,tissue uptake at 4 h,"[1]; 10 pmol, Liver uptake",0.7 ± 0.3 %ID/g
same,tissue uptake at 24 h,"[1]; 10 pmol, Liver uptake",0.3 ± 0.1 %ID/g
same,tissue uptake at 1 h,"[1]; 10 pmol, Lung uptake",3 ± 1 %ID/g
same,tissue uptake at 4 h,"[1]; 10 pmol, Lung uptake",0.8 ± 0.2 %ID/g
same,tissue uptake at 24 h,"[1]; 10 pmol, Lung uptake",0.5 ± 0.1 %ID/g
same,tissue uptake at 1 h,"[1]; 10 pmol, Muscle uptake",0.4 %ID/g
same,tissue uptake at 4 h,"[1]; 10 pmol, Muscle uptake",0.1 ± 0.1 %ID/g
same,tissue uptake at 24 h,"[1]; 10 pmol, Muscle uptake",0.04 %ID/g
same,tissue uptake at 1 h,"[1]; 10 pmol, Pancreas uptake",5.6 ± 0.6 %ID/g
same,tissue uptake at 4 h,"[1]; 10 pmol, Pancreas uptake",0.4 ± 0.1 %ID/g
same,tissue uptake at 24 h,"[1]; 10 pmol, Pancreas uptake",0.2 %ID/g
same,tissue uptake at 1 h,"[1]; 10 pmol, Spleen uptake",0.9 ± 0.2 %ID/g
same,tissue uptake at 4 h,"[1]; 10 pmol, Spleen uptake",1.2 ± 0.2 %ID/g
same,tissue uptake at 24 h,"[1]; 10 pmol, Spleen uptake",0.9 ± 0.1 %ID/g
same,tissue uptake at 1 h,"[1]; 10 pmol, Stomach uptake",4.9 ± 1.6 %ID/g
same,tissue uptake at 4 h,"[1]; 10 pmol, Stomach uptake",0.9 ± 0.2 %ID/g
same,tissue uptake at 24 h,"[1]; 10 pmol, Stomach uptake",0.4 %ID/g
same,tissue uptake at 1 h,"[1]; 10 pmol, Tumor uptake",20.6 ± 3.7 %ID/g
same,tissue uptake at 4 h,"[1]; 10 pmol, Tumor uptake",19 ± 3.1 %ID/g
same,tissue uptake at 24 h,"[1]; 10 pmol, Tumor uptake",7.7 ± 2.5 %ID/g
same,tissue uptake at 1 h,"[1]; 200 pmol, Adrenal uptake",2.1 ± 1.2 %ID/g
same,tissue uptake at 1 h,"[1]; 200 pmol, Blood uptake",0.5 ± 0.1 %ID/g
same,tissue uptake at 1 h,"[1]; 200 pmol, Bone uptake",0.5 ± 0.3 %ID/g
same,tissue uptake at 1 h,"[1]; 200 pmol, Heart uptake",0.3 ± 1 %ID/g
same,tissue uptake at 1 h,"[1]; 200 pmol, Intestine uptake",0.5 ± 0.1 %ID/g
same,tissue uptake at 1 h,"[1]; 200 pmol, Kidney uptake",10.6 ± 1.6 %ID/g
same,tissue uptake at 1 h,"[1]; 200 pmol, Liver uptake",1.6 ± 0.3 %ID/g
same,tissue uptake at 1 h,"[1]; 200 pmol, Lung uptake",0.4 ± 0.2 %ID/g
same,tissue uptake at 1 h,"[1]; 200 pmol, Muscle uptake",0.2 %ID/g
same,tissue uptake at 1 h,"[1]; 200 pmol, Pancreas uptake",1.7 ± 0.3 %ID/g
same,tissue uptake at 1 h,"[1]; 200 pmol, Spleen uptake",0.7 ± 0.1 %ID/g
same,tissue uptake at 1 h,"[1]; 200 pmol, Stomach uptake",1.7 ± 0.7 %ID/g
same,tissue uptake at 1 h,"[1]; 200 pmol, Tumor uptake",16.4 ± 0.7 %ID/g
same,tissue uptake at 1 h,"[1]; 1000 pmol, Adrenal uptake",1.4 ± 0.6 %ID/g
same,tissue uptake at 1 h,"[1]; 1000 pmol, Blood uptake",0.4 ± 0.1 %ID/g
same,tissue uptake at 1 h,"[1]; 1000 pmol, Bone uptake",0.8 ± 0.4 %ID/g
same,tissue uptake at 1 h,"[1]; 1000 pmol, Heart uptake",0.3 ± 0.1 %ID/g
same,tissue uptake at 1 h,"[1]; 1000 pmol, Intestine uptake",0.3 ± 0.1 %ID/g
same,tissue uptake at 1 h,"[1]; 1000 pmol, Kidney uptake",7.9 ± 0.4 %ID/g
same,tissue uptake at 1 h,"[1]; 1000 pmol, Liver uptake",1 ± 0.2 %ID/g
same,tissue uptake at 1 h,"[1]; 1000 pmol, Lung uptake",0.3 ± 0.1 %ID/g
same,tissue uptake at 1 h,"[1]; 1000 pmol, Muscle uptake",0.3 ± 0.2 %ID/g
same,tissue uptake at 1 h,"[1]; 1000 pmol, Pancreas uptake",0.8 ± 0.2 %ID/g
same,tissue uptake at 1 h,"[1]; 1000 pmol, Spleen uptake",0.5 ± 0.1 %ID/g
same,tissue uptake at 1 h,"[1]; 1000 pmol, Stomach uptake",0.9 ± 0.2 %ID/g
same,tissue uptake at 1 h,"[1]; 1000 pmol, Tumor uptake",9.7 ± 2.4 %ID/g
same,tissue uptake at 1 h,"[1]; 2000 pmol, Adrenal uptake",1.9 ± 0.7 %ID/g
same,tissue uptake at 1 h,"[1]; 2000 pmol, Blood uptake",0.3 ± 0.1 %ID/g
same,tissue uptake at 1 h,"[1]; 2000 pmol, Bone uptake",0.2 %ID/g
same,tissue uptake at 1 h,"[1]; 2000 pmol, Heart uptake",0.2 ± 0.1 %ID/g
same,tissue uptake at 1 h,"[1]; 2000 pmol, Intestine uptake",0.4 ± 0.1 %ID/g
same,tissue uptake at 1 h,"[1]; 2000 pmol, Kidney uptake",8.1 ± 0.7 %ID/g
same,tissue uptake at 1 h,"[1]; 2000 pmol, Liver uptake",0.8 ± 0.1 %ID/g
same,tissue uptake at 1 h,"[1]; 2000 pmol, Lung uptake",0.3 %ID/g
same,tissue uptake at 1 h,"[1]; 2000 pmol, Muscle uptake",0.2 %ID/g
same,tissue uptake at 1 h,"[1]; 2000 pmol, Pancreas uptake",0.6 ± 0.1 %ID/g
same,tissue uptake at 1 h,"[1]; 2000 pmol, Spleen uptake",0.6 ± 0.1 %ID/g
same,tissue uptake at 1 h,"[1]; 2000 pmol, Stomach uptake",0.8 ± 0.1 %ID/g
same,tissue uptake at 1 h,"[1]; 2000 pmol, Tumor uptake",9.2 ± 0.4 %ID/g
